Measurements reported in US20260210939A1, “MODIFIED OLFACTORY RECEPTORS” (GIVAUDAN SA, priority 2022, published 2026).

Molecular target: T1, OR7C1 (Homo sapiens, UniProt O76099, D296E/G302K/M297V/R299D/T295K/V126I)
T1 construct: Improved functional expression of modified OR-genes containing the truncated, optimized C-terminus; expressed in transfected cells; host or cells: HEK293T stably expressing human RTP1S(V227I) and RTP2(L220R)
T1 sequence (O76099 with tags, fused parts or gaps V126I/T295K/D296E/M297V/R299D/G302K): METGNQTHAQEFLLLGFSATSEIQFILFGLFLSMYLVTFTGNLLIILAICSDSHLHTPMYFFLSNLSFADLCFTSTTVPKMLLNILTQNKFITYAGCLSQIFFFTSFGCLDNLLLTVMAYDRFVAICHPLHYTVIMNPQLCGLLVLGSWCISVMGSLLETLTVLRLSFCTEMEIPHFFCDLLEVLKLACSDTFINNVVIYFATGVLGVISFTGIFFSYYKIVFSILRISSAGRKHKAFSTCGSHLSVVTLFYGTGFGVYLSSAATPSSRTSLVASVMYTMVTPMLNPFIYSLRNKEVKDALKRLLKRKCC
Assay: CRE-luciferase assay, HEK293T cells expressing OR7C1 (wild-type / modified C-terminus)
Assay type: cell-based
Conditions: OR7C1 variant, 1 μM Ambermax
Source text: To test for possible variants of the sequence […]CC (SEQ ID NO: 86) leading to similar improved functional expression, different point mutations were introduced into the first 16 amino acids of this sequence (corresponding to […], SEQ ID NO: 10) and the variants were fused after the TM7 with OR7C1. […] The test concentrations were selected to fall into the range of partial activity of the wild-type sequence.

| % of the activation by the optimized sequence RNKEVKDALKRLLKRKCC [%] | Substance |
| --- | --- |
| 174.6 | SEQ ID NO: 99 (RNKEVKDAIKRLLKRKCC; source 1..18: note = C-terminal domain sequence) |
| 86.0 | SEQ ID NO: 100 (RNKEVKDALRRLLKRKCC; source 1..18: note = C-terminal domain sequence) |
| 86.8 | SEQ ID NO: 101 (RNKEVKDALKKLLKRKCC; source 1..18: note = C-terminal domain sequence) |
| 88.6 | SEQ ID NO: 102 (RNKEVKDALKRLIKRKCC; source 1..18: note = C-terminal domain sequence) |
| 207.1 | SEQ ID NO: 103 (RNKEVKDALKRLFKRKCC; source 1..18: note = C-terminal domain sequence) |
| 96.3 | SEQ ID NO: 104 (RNKEVKDALKRLLRRKCC; source 1..18: note = C-terminal domain sequence) |
| 106.7 | SEQ ID NO: 105 (RNKEVKDALKRLLKKKCC; source 1..18: note = C-terminal domain sequence) |
| 104.1 | SEQ ID NO: 106 (RNKEVKDALKRLLKRRCC; source 1..18: note = C-terminal domain sequence) |
| 53.2 | SEQ ID NO: 107 (RNKDVKDALKRLLKRKCC; source 1..18: note = C-terminal domain sequence) |
| 42.0 | SEQ ID NO: 108 (RNKQVKDALKRLLKRKCC; source 1..18: note = C-terminal domain sequence) |
| 43.8 | SEQ ID NO: 109 (RNKELKDALKRLLKRKCC; source 1..18: note = C-terminal domain sequence) |
| 41.6 | SEQ ID NO: 110 (RNKEVKGALKRLLKRKCC; source 1..18: note = C-terminal domain sequence) |
| 44.4 | SEQ ID NO: 111 (RNKEVKDALHRLLKRKCC; source 1..18: note = C-terminal domain sequence) |
| 53.2 | SEQ ID NO: 112 (RNKEVKDALKRILKRKCC; source 1..18: note = C-terminal domain sequence) |
| 63.2 | SEQ ID NO: 113 (RNKEVKDALKRLLGRKCC; source 1..18: note = C-terminal domain sequence) |
| 157.1 | SEQ ID NO: 119 (RNKEVKDALRKLLKRKCC; source 1..18: note = C-terminal domain sequence) |
| 90.4 | SEQ ID NO: 120 (RNKEVKDALKRLLRRRCC; source 1..18: note = C-terminal domain sequence) |
| 312.9 | SEQ ID NO: 123 (RNKEVKRALKRLLKRKRR; source 1..18: note = C-terminal domain sequence) |
| 239.7 | SEQ ID NO: 124 (RNKEVKRALKRLLKRKYP; source 1..18: note = C-terminal domain sequence) |
| 254.2 | SEQ ID NO: 125 (RNKEVKRALKRLLKRKRF; source 1..18: note = C-terminal domain sequence) |
| 280.9 | SEQ ID NO: 126 (RNKEVKRALKRLLKRKFK; source 1..18: note = C-terminal domain sequence) |
| 308.5 | SEQ ID NO: 127 (RNKEVKKALKRLLKRKRR; source 1..18: note = C-terminal domain sequence) |
| 206.9 | SEQ ID NO: 128 (RNKEVKKALKRLLKRKYP; source 1..18: note = C-terminal domain sequence) |
| 294.8 | SEQ ID NO: 129 (RNKEVKKALKRLLKRKRF; source 1..18: note = C-terminal domain sequence) |
| 286.4 | SEQ ID NO: 130 (RNKEVKKALKRLLKRKFK; source 1..18: note = C-terminal domain sequence) |
| 263.5 | SEQ ID NO: 154 (RNKEVKDALKRLLKRKCRRRR; source 1..21: note = C-terminal domain sequence) |
| 204.3 | SEQ ID NO: 157 (RNKEVKDALKRLLKRKCRRRRR; source 1..22: note = C-terminal domain sequence) |

| % of the activation by the optimized sequence RNKEVKDALKRLLKRKCC [%] | Substance |
| --- | --- |
| 168.8 | SEQ ID NO: 158 (RNKEVKDALKRLLKRKCRRRKK; source 1..22: note = C-terminal domain sequence) |
| 26.0 | SEQ ID NO: 186 (KNKEVKDALKRLLKRKCC; source 1..18: note = C-terminal domain sequence) |
| 3.3 | SEQ ID NO: 187 (RTKEVKDALKRLLKRKCC; source 1..18: note = C-terminal domain sequence) |
| 28.5 | SEQ ID NO: 188 (RQKEVKDALKRLLKRKCC; source 1..18: note = C-terminal domain sequence) |
| 16.2 | SEQ ID NO: 189 (RNHEVKDALKRLLKRKCC; source 1..18: note = C-terminal domain sequence) |
| 4.6 | SEQ ID NO: 190 (RNKEVKDGLKRLLKRKCC; source 1..18: note = C-terminal domain sequence) |
| 3.9 | SEQ ID NO: 191 (RNKEVKDVLKRLLKRKCC; source 1..18: note = C-terminal domain sequence) |
| 27.0 | SEQ ID NO: 192 (RNKEVKDAMKRLLKRKCC; source 1..18: note = C-terminal domain sequence) |
| 12.3 | SEQ ID NO: 193 (RNKEVKDALKHLLKRKCC; source 1..18: note = C-terminal domain sequence) |
| 30.4 | SEQ ID NO: 194 (RNKEVKDALKRVVKRKCC; source 1..18: note = C-terminal domain sequence) |
| 14.1 | SEQ ID NO: 195 (RNKEVKDALKRLRKRKCC; source 1..18: note = C-terminal domain sequence) |
| 5.7 | SEQ ID NO: 196 (RNKEVKDALKRLKKRKCC; source 1..18: note = C-terminal domain sequence) |
| 5.6 | SEQ ID NO: 197 (RNKEVKDALKRLLERKCC; source 1..18: note = C-terminal domain sequence) |
| 46.0 | SEQ ID NO: 321 (RNKEVKCALKRLLKRKCC; source 1..18: note = C-terminal domain sequence) |
| 41.1 | SEQ ID NO: 322 (RNKEVKFALKRLLKRKCC; source 1..18: note = C-terminal domain sequence) |
| 65.6 | SEQ ID NO: 323 (RNKEVKHALKRLLKRKCC; source 1..18: note = C-terminal domain sequence) |
| 81.0 | SEQ ID NO: 324 (RNKEVKIALKRLLKRKCC; source 1..18: note = C-terminal domain sequence) |
| 108.0 | SEQ ID NO: 325 (RNKEVKLALKRLLKRKCC; source 1..18: note = C-terminal domain sequence) |
| 107.6 | SEQ ID NO: 326 (RNKEVKMALKRLLKRKCC; source 1..18: note = C-terminal domain sequence) |
| −3.7 | SEQ ID NO: 327 (RNKEVKPALKRLLKRKCC; source 1..18: note = C-terminal domain sequence) |
| 99.1 | SEQ ID NO: 328 (RNKEVKSALKRLLKRKCC; source 1..18: note = C-terminal domain sequence) |
| 129.9 | SEQ ID NO: 329 (RNKEVKTALKRLLKRKCC; source 1..18: note = C-terminal domain sequence) |
| 17.4 | SEQ ID NO: 330 (RNKEVKWALKRLLKRKCC; source 1..18: note = C-terminal domain sequence) |
| 59.4 | SEQ ID NO: 331 (RNKEVKYALKRLLKRKCC; source 1..18: note = C-terminal domain sequence) |
| 1.0 | Ser Gln |
| 225.3 | Ser Ile |
